According to US20240018252A1:

Target: cynomolgus BCMA (cynomolgus (given as cyBCMA, Cyno))
Experiment: SPR, IgG immobilized, cyno BCMA analyte, 37 C

Chain of cynomolgus BCMA (cynomolgus (given as cyBCMA, Cyno)) (chain, as listed by the source): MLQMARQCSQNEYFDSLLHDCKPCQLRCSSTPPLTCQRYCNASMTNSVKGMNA

| Binder | Kd | koff | kon |
| --- | --- | --- | --- |
| A02_Rd4_6nM_C08 (antibody, V domains shown) VH: EVQLLESGGGLVQPGGSLRLSCAASGFTFSSYAMNWVRQAPGKGLEWVSAILDSGGSTYYADSVKGRFTISRDNSKNTLYLQMNSLRAEDTAVYYCARYWPMSPWGQGTLVTVSS VL: EIVLTQSPGTLSLSPGERATLSCRASQSVSFLYLAWYQQKPGQAPRLLMYDASIRATGIPDRFSGSGSGTDFTLTISRLEPEDFAVYYCQQYGSWPLTFGQGTKVEIK | 5.07 nM | 0.0113 s⁻¹ | 2.23e+06 M⁻¹ s⁻¹ |
| A02_Rd4_6nM_C04 (antibody, V domains shown) VH: EVQLLESGGGLVQPGGSLRLSCAASGFTFSSYAMNWVRQAPGKGLEWVSAIMSSGGPLYYADSVKGRFTISRDNSKNTLYLQMNSLRAEDTAVYYCARYWPMALWGQGTLVTVSS VL: EIVLTQSPGTLSLSPGERATLSCRASQSVSALYLAWYQQKPGQAPRLLMYDASIRATGIPDRFSGSGSGTDFTLTISRLEPEDFAVYYCQQYQVWPLTFGQGTKVEIK | 0.381 nM | 0.000831 s⁻¹ | 2.18e+06 M⁻¹ s⁻¹ |
| A02_Rd4_6nM_C19 (antibody, V domains shown) VH: EVQLLESGGGLVQPGGSLRLSCAASGFTFSSYAMNWVRQAPGKGLEWVSAISDSGGSRWYADSVKGRFTISRDNSKNTLYLQMNSLRAEDTAVYYCARYWPMSDWGQGTLVTVSS VL: EIVLTQSPGTLSLSPGERATLSCRASQSVSVLYLAWYQQKPGQAPRLLMYDASIRATGIPDRFSGSGSGTDFTLTISRLEPEDFAVYYCQQYLAWPLTFGQGTKVEIK | 0.26 nM | 0.000661 s⁻¹ | 2.54e+06 M⁻¹ s⁻¹ |

Stronger by Kd, values ahead:

| Kd | koff | kon | Binder |
| --- | --- | --- | --- |
| 0.197 nM | 0.000639 s⁻¹ | 3.24e+06 M⁻¹ s⁻¹ | A02_Rd4_0.6nM_C18 (antibody, V domains shown) VH: EVQLLESGGGLVQPGGSLRLSCAASGFTFSSYAMNWVRQAPGKGLEWVSAVLDSGGSTYYADSVKGRFTISRDNSKNTLYLQMNSLRAEDTAVYYCARYWPMSLWGQGTLVTVSS VL: EIVLTQSPGTLSLSPGERATLSCRASQSVSELYLAWYQQKPGQAPRLLMYDASIRATGIPDRFSGSGSGTDFTLTISRLEPEDFAVYYCQQYFGWPLTFGQGTKVEIK |
| 0.058 nM | 0.000105 s⁻¹ | 1.81e+06 M⁻¹ s⁻¹ | A02_Rd4_0.6nM_C06 (antibody, V domains shown) VH: EVQLLESGGGLVQPGGSLRLSCAASGFTFSSYAMNWVRQAPGKGLEWVSAISDSGGSAWYADSVKGRFTISRDNSKNTLYLQMNSLRAEDTAVYYCARYWPMSLWGQGTLVTVSS VL: EIVLTQSPGTLSLSPGERATLSCRASQSVSVLYLAWYQQKPGQAPRLLMYDASIRATGIPDRFSGSGSGTDFTLTISRLEPEDFAVYYCQQYQRWPLTFGQGTKVEIK |
